Measured values: US7186539

T1: Peptide substrate EIDL-MVLDWHDR
T1 chain: EIDLMVLDWHDR

T2: Synthetic peptide substrate GLTNIKTEEISEISY-EVEFRWKK
T2 chain: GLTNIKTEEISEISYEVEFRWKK

T3: Synthetic peptide substrate SEISY-EVEFRWKK
T3 chain: SEISYEVEFRWKK

B1: CHO-BACE, recombinant human BACE construct Asp2-2LΔTM-His6 expressed in CHO cells (protein)
chain: TQHGIRLPLRSGLGGAPLGLRLPRETDEEPEEPGRRGSFVEMVDNLRGKSGQGYYVEMTVGSPPQTLNILVDTGSSNFAVGAAPHPFLHRYYQRQLSSTYRDLRKGVYVPYTQGKWEGELGTDLVSIPHGPNVTVRANIAAITESDKFFINGSNWEGILGLAYAEIARPDDSLEPFFDSLVKQTHVPNLFSLQLCGAGFPLNQSEVLASVGGSMIIGGIDHSLYTGSLWYTPIRREWYYEVIIVRVEINGQDLKMDCKEYNYDKSIVDSGTTNLRLPKKVFEAAVKSIKAASSTEKFPDGFWLGEQLVCWQAGTTPWNIFPVISLYLMGEVTNQSFRITILPQQYLRPVEDVATSQDDCYKFAISQSSTGTVMGAVIMEGFYVVFDRARKRIGFAVSACHVHDEFRTAAVEGPFVTLDMEDCGYNIPQTDESHHHHHH
B2: pQE70-BACE (M)R36GSFVE...QTDES432RS(His)6 (protein)
chain: MRGSFVEMVDNLRGKSGQGYYVEMTVGSPPQTLNILVDTGSSNFAVGAAPHPFLHRYYQRQLSSTYRDLRKGVYVPYTQGKWEGELGTDLVSIPHGPNVTVRANIAAITESDKFFINGSNWEGILGLAYAEIARPDDSLEPFFDSLVKQTHVPNLFSLQLCGAGFPLNQSEVLASVGGSMIIGGIDHSLYTGSLWYTPIRREWYYEVIIVRVEINGQDLKMDCKEYNYDKSIVDSGTTNLRLPKKVFEAAVKSIKAASSTEKFPDGFWLGEQLVCWQAGTTPWNIFPVISLYLMGEVTNQSFRITILPQQYLRPVEDVATSQDDCYKFAISQSSTGTVMGAVIMEGFYVVFDRARKRIGFAVSACHVHDEFRTAAVEGPFVTLDMEDCGYNIPQTDESRSHHHHHH

What was measured:
[1] = target: T1, Peptide substrate EIDL-MVLDWHDR
[2] = target: T2, Synthetic peptide substrate …
[3] = target: T3, Synthetic peptide substrate …

Protein	Km [1]	Vmax (µmol min^-1mg^-1) [1]	kcat [1]	kcat/Km [1]	Km [2]	Vmax (µmol min^-1mg^-1) [2]	kcat [2]	kcat/Km [2]	Km [3]	Vmax (µmol min^-1mg^-1) [3]	kcat [3]	kcat/Km [3]
B1	12 µM	0.0196	0.0155 s⁻¹	0.0013 sec^-1µM^-1	4.9 µM	0.435	0.345 s⁻¹	0.0704 sec^-1µM^-1	52 µM	0.294	0.233 s⁻¹	0.0045 sec^-1µM^-1
B2					5.4 µM	0.4	0.317 s⁻¹	0.0581 sec^-1µM^-1	55.5 µM	0.345	0.273 s⁻¹	0.0049 sec^-1µM^-1
